The source of these data is patent US20250333515A1.

As usually defined, the Kd is the constant that tells how readily two partners part at equilibrium. Usually koff stands for the rate constant with which the complex falls apart. For orientation: kon means the rate constant with which the complex forms. The EC50 is the midpoint of the concentration-response curve.

The target in assay [1] is biotinylated recombinant human CLL-1 extracellular domain protein, isoform with glutamine at amino acid position 244 (human) (UniProt Q5QGZ9). Kind of assay: BLItz, 1:1 model (Q244 per FIG. 12B).
For assay [2], the target named is biotinylated recombinant human CLL-1 extracellular domain protein, isoform with lysine at amino acid position 244 (human) (UniProt Q5QGZ9). The assay can be described thus: Exp 1 (= Octet, CLL-1-K244 of FIG. 12B). For orientation: Biolayer interferometry detects binding as a change in optical thickness at a sensor tip.
Assay [3] shares this target. Kind of assay: Octet (CLL-1-K244); variant column: Q>K.
Assay [4] addresses biotinylated recombinant human CLL-1 extracellular domain protein, isoform with glutamine at amino acid position 244 (human) (UniProt Q5QGZ9). The assay can be described thus: Blitz (CLL-1-Q244).
For assay [5] the target is unchanged. Kind of assay: Exp 2 (= Blitz, CLL-1-Q244 of FIG. 12B).
The target in assay [6] is biotinylated recombinant human CLL-1 extracellular domain protein, isoform with lysine at amino acid position 244 (human) (UniProt Q5QGZ9). The assay can be described thus: EC50 table, CLL-1 K244; reciprocals of the ELISA bars of FIG. 8B. Background: An ELISA detects its analyte on a solid surface through an enzyme-linked reagent.
Assay [7] has as its target biotinylated recombinant human CLL-1 extracellular domain protein, isoform with glutamine at amino acid position 244 (human) (UniProt Q5QGZ9). Kind of assay: EC50 table, CLL-1 Q244; reciprocals of the ELISA bars of FIG. 8B.
Assay [8] concerns the target biotinylated recombinant human CLL-1 extracellular domain protein, isoform with lysine at amino acid position 244 (human) (UniProt Q5QGZ9). Kind of assay: Octet (CLL-1-K244); variant: Both.

biotinylated recombinant human CLL-1 extracellular domain protein, isoform with glutamine at amino acid position 244 (human), sequence (Q5QGZ9 65-265): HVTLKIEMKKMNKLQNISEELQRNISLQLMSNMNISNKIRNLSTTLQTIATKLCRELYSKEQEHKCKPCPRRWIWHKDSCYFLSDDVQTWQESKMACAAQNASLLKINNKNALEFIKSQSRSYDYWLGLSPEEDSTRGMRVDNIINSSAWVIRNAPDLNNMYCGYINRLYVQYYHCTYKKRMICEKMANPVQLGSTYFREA
biotinylated recombinant human CLL-1 extracellular domain protein, isoform with lysine at amino acid position 244 (human), sequence (Q5QGZ9 65-265): as above

B1: Anti-CLL-1 Binder Clone 11 (scFv, not shown: small tags and cut ends)
scFv: QSVLTQPASVSGSPGQSITISCTGTSSDVGASNSVSWYQRHPGKPPKLMIYDVSNRPSGISNRFSGSKSGNTASLTISGLQSEDEADYYCSSYTGSSTFVVFGGGTQLIILGGGGSGGGGSGGGGSEVQLVESGGGVVQPGGSLRLSCAASGFTFSSYWMSWVRQAPGKGLEWVANIRQDGSEKYYVDSVKGRFTISRDNAKNSLYLQMNSLRAEDAAVYYCAREQDTAMVAFDYWGQGTLVTVSS
On to B1, for which the equilibrium dissociation constant (Kd) in assay [1] was determined as 41 nM; in assay [2], 16.6 nM; in assay [3], 16.6 nM; in assay [4], 41 nM; in assay [5], 41 nM. Besides, the koff in assay [1] amounted to 0.0023 s⁻¹. In addition, the kon in assay [1] worked out at 59000 M⁻¹ s⁻¹.

B2: Anti-CLL-1 Binder Clone 97 (VHH)
VHH: QVQLVQSGGGLVQPGGSLRLSCAASDFDFDDDSMDWVRQAPGKGLEWIGSVLHDGATYYNPSLKSRVTISRDNSKNTLYLQMNTLRAEDTATYYCTRSALYGDAAFDVWAQGTMVTVSS
With B2, the EC50 in assay [6] and in assay [7] was 1.3 nM in each case.

B3: Anti-CLL-1 Binder Clone 100 (VHH)
VHH: QVQLVQSGGGLVQPGGSLRLSCAASDFDFDDDSMDWVRQAPGKALEWIGSVSYSGQTFYNPSLKSRVTISRDNSKNTLYLQMNTLRAEDTAMYYCTRSALYGDAAFDVWAQGTMVTVSS
Regarding B3, the EC50 in assay [6] was found to be 0.6 nM; in assay [7], 0.59 nM.

B4: Anti-CLL-1 Binder Clone 101 (VHH)
VHH: QVQLVQSGGGLVQPGGSLRLSCAASDFDFADDSMDWVRQAPGKALEWIGSIFYSGTTYYNPSLKSRVTISRDNSKNTLYLQMNTLRAEDTAVYYCTRSALYGDAAFDVWAQGTMVTVSS
Take B4: the EC50 in assay [6] and in assay [7] was 4.8 nM throughout.

B5: Anti-CLL-1 Binder Clone 38 (scFv, not shown: small tags and cut ends)
scFv: DIQMTQSPSTLSASVGDRVTITCRASQSISSWLAWYQQKPGKAPKLLIYTASSLQSGVPSRFSGSESGTDFTLTISSLQPEDFATYYCQQSYSTPLTFGGGTKVDIKGGGGSGGGGSGGGGSQVQLVQSGAEVKKPGASVKVSCKASGYTFTGYYMHWVRQAPGQGLEWMGWINPNSGGTNYAQKFQGRVTLTRDTSITTAYLELTSLTSDDTAVYYCARGDTGDFFDHWGQGTLVTVSS
For B5, the dissociation constant (Kd) was 14 nM in assay [1]; 1.74 nM in assay [2]; 1.74 nM in assay [8]; 14 nM in assay [4]; 14 nM in assay [5]. For the same molecule, the koff in assay [1] is 0.00097 s⁻¹. The kon in assay [1] was determined as 69000 M⁻¹ s⁻¹.

B6: Anti-CLL-1 Binder Clone 20 (VHH, not shown: small tags and cut ends)
VHH: QVQLVQSGGGLVQPGGSLRLSCAASDFSFSYYEMSWVRQAPGKGLEWVSTISGSGDSTYYADSVKGRFTISRDNTKNTLYLQMNTLRAEDTATYYCMTDGETWGTHRYTVYWGQGALVTVSS
For B6, the Kd in assay [1] stood at 33 nM; in assay [2], 5.68 nM; in assay [8], 5.68 nM; in assay [4], 33 nM; in assay [5], 33 nM. Besides, the off-rate constant (koff) in assay [1] was 0.0035 s⁻¹. The kon in assay [1] turned out to be 110000 M⁻¹ s⁻¹.

B7: Anti-CLL-1 Binder Clone 95 (VHH)
VHH: QVQLVQSGGGLVQPGGSLRLSCAASAFDFDDSSMDWVRQAPGKALEWIGSISYFGSTYYNPSLKSRVTISRDNSKNTLYLQMNTLRAEDTATYYCTRSALYGDAAFDVWAQGTTVTVS
In the case of B7, the EC50 amounted to 5.1 nM in assay [6] and 5.3 nM in assay [7].

B8: Anti-CLL-1 Binder Clone 96 (VHH)
VHH: QVQLVQSGGGLVQPGGSLRLSCAASYFDFSYYEMSWVRQAPGKGLEWVSLMSGNGGSTYYADSVKGRFTISRDNSKNTLYLQMNTLRAEDTATYYCVAHSSTWFSWGQGTLVTVSS
For the molecule B8, the EC50 in assay [6] and in assay [7] was 6.4 nM in each case.

B9: Anti-CLL-1 Binder Clone 41 (scFv, not shown: small tags and cut ends)
scFv: QSVLTQPASVSGSLGQSITISCTGTSRDVGGYNFVSWYQQHPGKAPKLIIFDVTTRPSGLSDRFSASKSGNTASLTISGLQAEDEADYFCGSYTASDTMLFGGGTKLTVLGGGGSGGGGSGGGGSQVQLLESGGGVVQPGRSLRLSCAASGFTFDDYAMHWVRQAPGKGLEWVSGISWNSGSIGYADSVKGRFTVSRDNSKNTLYQQMNGLRAEDTAVYYCAREGRPTAFDYWGQGTTVTVSS
On to B9, for which, in assay [1], the Kd worked out at 306 nM, the koff was found to be 0.032 s⁻¹ and the on-rate constant (kon) was 100000 M⁻¹ s⁻¹. The Kd in assay [4] stood at 306 nM. The Kd in assay [5] stood at 306 nM.

B10: Anti-CLL-1 Binder Clone 98 (VHH)
VHH: QVQLVQSGGGLVQPGGSLRLSCAASDFYFDDYEMSWVRQAPGQRLEWVSLISSDGTTYYADSVKGRFTISRDNSKNTLYLQMNTLRAEDTALYYCVRTTDSWELDLWGRGTLVTVSS
Consider B10, for which the EC50 in assay [6] is 12 nM; in assay [7], 11 nM.

B11: Anti-CLL-1 Binder Clone 94 (VHH)
VHH: QVQLVQSGGGLVQPGGSLRLSCAASYFDFAAYDMDWVRQAPGQRLEWVAKISHDGSYSWYADSVKGRFTISRDNSKNTLYLQMNTLRAEDTAVYYCVRGEGGSERADYWGRGTLVTVSS
As for B11, the EC50 in assay [7] was found to be 90 nM.

B12: Anti-CLL-1 Binder Clone 2 (scFv, not shown: small tags and cut ends)
scFv: QSVLTQPLSVSVALGQTARITCGGNNIGSKNVHWYQQKAGQAPVLVIQRDSNRPSGIPERFSGSNSGNTATLTISRAQAGDEADYFCQVWDSNTYVFGTGTKLTVLGGGGSGGGGSGGGGSEVQLVESGGGLVKPGGSLRLSCAASGFTFSDYYMSWIRQAPGKGLEWVSYISSSGSTIYYADSVKGRFTISRDNAKNSLYLQMNSLRDEDTAVYYCARQSAEIVGAFDHWGQGTMVTVSS
Take B12: in assay [1], the Kd was determined as 70 nM, the koff came out at 0.0033 s⁻¹ and the kon came out at 47000 M⁻¹ s⁻¹. Further, the Kd in assay [4] came to 70 nM. Besides, the Kd in assay [5] was determined as 70 nM.

B13: Anti-CLL-1 Binder Clone 102 (VHH)
VHH: QVQLVQSGGGLVQPGGSLRLSCAASYFSFADYEMSWVRQAPGQRLEWVAVVSKDGNELYYADSVKGRFTISRDNSKNTLYLQMNTLRAEDTAVYYCVKDPYDFWSGYYSNWGQGTLVTVSS
Regarding B13, the values for the half-maximal effective concentration (EC50) in assay [6] and in assay [7] were 2.6 nM and 2.5 nM, respectively.

B14: Anti-CLL-1 Binder Clone 10 (scFv, not shown: small tags and cut ends)
scFv: DIQMTQSPSFLSASVGDRVTITCRASQGISSYLAWYQQKPGKAPKLLIYSASSLQSGVPSRFSGSGSGTDFTLTISSLQPEDFATYYCQQSYNSPTFGQGTRLEIKGGGGSGGGGSGGGGSQVQLVQSGAEVKKPGASVKVSCKASGYTFTGYYMHWVRQAPGQGLEWMGWMNPNSGNTGYAQKFQGRVTMTRNTSISTAYLELTSLTSDDTAVYYCARGDTGDFFDHWGQGTLVTVSS
Regarding B14, the Kd stood at 21 nM in assay [1]; 2.61 nM in assay [2]; 2.61 nM in assay [8]; 21 nM in assay [4]; 21 nM in assay [5]. The koff in assay [1] stood at 0.0013 s⁻¹. For the same molecule, the kon in assay [1] came to 62000 M⁻¹ s⁻¹.

B15: Anti-CLL-1 Binder Clone 6 (scFv, not shown: small tags and cut ends)
scFv: QSVLTQPPSVSAAPGQKVSIFCSGGSSNIGKNYVSWYQQLPGTAPKLLIYENQHRPSGIPDRFSGSKSGTSATLGITGLQTGDEADYYCATWDDSLSAGVFGGGTELTVLGGGGSGGGGSGGGGSQLVQSGAEVRKPGESLKISCKGSGYSFTSYWIGWVRQMPGKGLEWMGFIYPGDSDTRYSPSFQGQVTISADKSISTAYLQRSSLKASDTAMYYCARLGGYSGYDSEVFYLDYWGQGTTVTVSS
Regarding B15, the equilibrium dissociation constant (Kd) was determined as 11 nM in assay [1]; 5.08 nM in assay [2]; 5.08 nM in assay [8]; 11 nM in assay [4]; 11 nM in assay [5]. Further, the koff in assay [1] came out at 0.00029 s⁻¹. Moreover, the kon in assay [1] is 27000 M⁻¹ s⁻¹.

B16: Anti-CLL-1 Binder Clone 4 (scFv, not shown: small tags and cut ends)
scFv: QSVVTQPPSVSAAPGQKVTISCSGSSPNIGKNYVSWYQQLPGTAPKLLIYDNNKRPSGIPDRFSGSKSGTSATLGITGLQTGDEADYYCGTWDSSLSGYVFGTGTKVTVLGGGGSGGGGSGGGGSQVQLVESGGGVVQPGRSLRLSCAASGFTFSSYGMHWVRQAPGKGLEWVAFISHDGSNKYYADSVKGRSTISRDNSKSTLFLQMNSLRDEDTAVYFCAREGQLTTSWDFFDYWGHGTLVTVSS
Regarding B16, the dissociation constant Kd in assay [1], in assay [4] and in assay [5] was 13 nM in each case. Also, the koff in assay [1] turned out to be 0.00057 s⁻¹. The kon in assay [1] was determined as 43000 M⁻¹ s⁻¹.

B17: Anti-CLL-1 Binder Clone 99 (VHH)
VHH: QVQLVQSGGGLVQPGGSLRLSCAASAFDFYSYEMSWVRQAPGKGLEWVSYIGPIGTDIGYADSVKGRFTISRDNSKNTLYLQMNTLRAEDTAMYYCAKDPYYDSTGLTSYWGQGTLVTVSS
For B17, the values for the EC50 in assay [6] and in assay [7] were 93 nM and 88 nM, respectively.

B18: Anti-CLL-1 Binder Clone 12 (scFv, not shown: small tags and cut ends)
scFv: DIQMTQSPSSLSASVGDRVTITCQASQDISNYLNWYQQKPGKAPKLLIYDASNLETGVPSRFSGSGSGTDFTLTISSPQPEDLATYYCQQANSFPFTFGQGTKVEIKGGGGSGGGGSGGGGSQVQLVQSGAEVKKPGSSVKVSCKASGYSFTRNDITWVRQANGRGLEWLGRLNPNNGDTVYAEVFQGRVAMTRDTSTDTAYMELASLKSDDTAVYFCARGFWSFDVWGQGTMVTVSS
Regarding B18, the Kd in assay [1], in assay [4] and in assay [5] was 45 nM in each case. In addition, in assay [1], the koff amounted to 0.0034 s⁻¹. For the same molecule, the kon in assay [1] turned out to be 76000 M⁻¹ s⁻¹.
